# Measurements reported in IntAct's records for PubMed 20498073.
# Molecular target: expa_drome ex (UniProt Q07436)
# Chain of UniProt Q07436 (Q07436 whole entry): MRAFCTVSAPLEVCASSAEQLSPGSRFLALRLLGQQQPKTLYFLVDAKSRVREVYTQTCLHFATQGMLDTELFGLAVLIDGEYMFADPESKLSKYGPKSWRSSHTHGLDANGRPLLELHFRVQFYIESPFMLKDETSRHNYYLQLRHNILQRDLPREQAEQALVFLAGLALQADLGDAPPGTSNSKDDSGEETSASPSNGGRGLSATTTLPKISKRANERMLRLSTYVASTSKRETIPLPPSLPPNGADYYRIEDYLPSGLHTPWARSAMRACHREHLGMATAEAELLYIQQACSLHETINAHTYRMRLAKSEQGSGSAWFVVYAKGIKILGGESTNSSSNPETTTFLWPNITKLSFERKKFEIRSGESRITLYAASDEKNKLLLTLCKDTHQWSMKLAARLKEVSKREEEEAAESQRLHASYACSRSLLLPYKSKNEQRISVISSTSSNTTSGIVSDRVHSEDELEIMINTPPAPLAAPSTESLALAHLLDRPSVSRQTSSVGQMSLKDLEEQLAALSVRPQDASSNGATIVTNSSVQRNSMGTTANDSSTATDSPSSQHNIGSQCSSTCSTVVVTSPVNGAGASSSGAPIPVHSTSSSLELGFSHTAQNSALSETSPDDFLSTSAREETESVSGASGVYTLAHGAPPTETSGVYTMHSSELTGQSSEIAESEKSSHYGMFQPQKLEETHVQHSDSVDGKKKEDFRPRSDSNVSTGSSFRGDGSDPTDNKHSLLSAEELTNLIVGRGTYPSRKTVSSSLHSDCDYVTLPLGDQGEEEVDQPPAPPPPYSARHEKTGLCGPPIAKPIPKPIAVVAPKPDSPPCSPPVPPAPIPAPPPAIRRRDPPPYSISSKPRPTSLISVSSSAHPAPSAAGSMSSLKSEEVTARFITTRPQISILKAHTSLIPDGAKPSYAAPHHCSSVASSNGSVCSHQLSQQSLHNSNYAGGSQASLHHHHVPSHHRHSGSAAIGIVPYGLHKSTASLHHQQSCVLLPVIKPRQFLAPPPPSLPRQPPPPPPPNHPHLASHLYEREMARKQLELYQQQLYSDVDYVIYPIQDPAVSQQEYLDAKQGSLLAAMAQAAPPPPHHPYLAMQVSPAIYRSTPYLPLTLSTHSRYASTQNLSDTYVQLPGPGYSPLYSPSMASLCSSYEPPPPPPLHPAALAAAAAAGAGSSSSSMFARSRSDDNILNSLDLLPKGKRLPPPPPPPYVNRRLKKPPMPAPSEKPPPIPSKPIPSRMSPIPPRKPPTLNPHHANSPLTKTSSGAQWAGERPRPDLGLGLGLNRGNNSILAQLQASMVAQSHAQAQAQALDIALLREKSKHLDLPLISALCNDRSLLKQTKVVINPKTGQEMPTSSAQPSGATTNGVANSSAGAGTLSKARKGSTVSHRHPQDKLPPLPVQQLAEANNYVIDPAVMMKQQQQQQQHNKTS
substance,measurement,value
"Protein crumbs (Drosophila melanogaster (Fruit fly)), P10040 Y2119A;P2121A;E2125A",effect of a mutation on the interaction,disrupting interaction
